The values that follow come from paper PMC9482650, “Quantitative fragmentomics allow affinity mapping of interactomes” (Nature Communications, 2022).

As a reminder, the pKd is the Kd on a negative log10 scale, so that one unit is a factor of ten.

Among the targets are GRIP2_4, Q9C0E4; GRID2IP_1, A4D2P6; FRMPD3, Q5JV73; DLG1_1, Q12959; PARD3_3, Q8TEW0; HTRA1, Q92743; LNX1_1, Q8TBB1; PTPN3, P26045; GRIP2_7, Q9C0E4; LNX1_2, Q8TBB1; IL16_1, Q14005.
Test in all cases: holdup assay
Holding throughout (set-up): key: below the threshold = too weak to quantify, mostly under pKd 3.1 to 4

The target of a further experiment is T1, LNX2_3, Q8N448.
T1 sequence (Q8N448 463-564, limits assumed, looked up): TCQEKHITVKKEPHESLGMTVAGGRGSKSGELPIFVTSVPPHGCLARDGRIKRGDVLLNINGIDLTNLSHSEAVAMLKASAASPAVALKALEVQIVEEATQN

The next experiment concerns the target T2, PTPN13_1, Q12923.
T2 sequence (Q12923 1088-1188, limits assumed, looked up): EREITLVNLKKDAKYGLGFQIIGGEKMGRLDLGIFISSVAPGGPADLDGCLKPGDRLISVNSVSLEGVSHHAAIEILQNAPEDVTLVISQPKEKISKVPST

Another experiment deals with T3, APBA3_1, O96018.
T3 sequence (O96018 389-490, limits assumed, looked up): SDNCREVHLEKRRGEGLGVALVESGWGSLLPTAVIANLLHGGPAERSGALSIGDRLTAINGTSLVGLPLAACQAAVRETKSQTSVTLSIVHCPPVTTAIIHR

For a further experiment, the target named is T4, LNX2_2, Q8N448.
T4 sequence (Q8N448 334-432, limits assumed, looked up): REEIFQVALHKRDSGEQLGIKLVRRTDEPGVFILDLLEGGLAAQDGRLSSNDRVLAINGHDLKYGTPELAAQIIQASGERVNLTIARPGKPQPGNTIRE

For a further experiment, the target named is T5, ARHGAP21, Q5T5U3.
T5 sequence (Q5T5U3 45-169, limits assumed, looked up): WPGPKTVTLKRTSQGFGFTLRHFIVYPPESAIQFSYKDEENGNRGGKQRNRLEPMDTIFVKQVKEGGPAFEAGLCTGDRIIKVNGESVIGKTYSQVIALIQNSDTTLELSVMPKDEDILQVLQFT

Another experiment addresses T6, TJP3_3, O95049.
T6 sequence (O95049 375-456, limits assumed, looked up): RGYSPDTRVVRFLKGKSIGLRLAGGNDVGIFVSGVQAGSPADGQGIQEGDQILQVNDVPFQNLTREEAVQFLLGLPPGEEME

In the next experiment the target is T7, SNTG1, Q9NSN8.
T7 sequence (Q9NSN8 52-150, limits assumed, looked up): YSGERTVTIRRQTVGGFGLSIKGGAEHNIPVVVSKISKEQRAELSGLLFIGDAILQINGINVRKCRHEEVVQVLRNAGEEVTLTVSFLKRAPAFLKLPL

Another experiment deals with T8, MPDZ_12, O75970.
T8 sequence (O75970 1857-1958, limits assumed, looked up): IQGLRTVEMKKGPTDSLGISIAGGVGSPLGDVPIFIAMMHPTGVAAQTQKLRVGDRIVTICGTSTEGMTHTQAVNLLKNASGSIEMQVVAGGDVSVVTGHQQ

The target of another experiment is T9, LIN7C, Q9NUP9.
T9 sequence (Q9NUP9 88-185, limits assumed, looked up): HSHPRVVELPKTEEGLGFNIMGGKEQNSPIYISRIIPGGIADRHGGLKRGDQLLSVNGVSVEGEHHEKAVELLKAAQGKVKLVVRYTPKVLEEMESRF

The target of the next experiment is T10, SYNJ2BP, P57105.
T10 sequence (P57105 8-110, limits assumed, looked up): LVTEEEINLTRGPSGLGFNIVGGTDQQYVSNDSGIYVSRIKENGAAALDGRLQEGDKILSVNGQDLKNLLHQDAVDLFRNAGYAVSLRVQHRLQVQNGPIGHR

The target in a further experiment is T11, PCLO, Q9Y6V0.
T11 sequence (Q9Y6V0 4491-4600, limits assumed, looked up): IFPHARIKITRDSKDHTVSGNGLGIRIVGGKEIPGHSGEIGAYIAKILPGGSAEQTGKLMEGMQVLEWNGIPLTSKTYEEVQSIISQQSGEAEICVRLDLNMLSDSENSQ

In a further experiment the target is T12, GRIP1_3, Q9Y3R0.
T12 sequence (Q9Y3R0 247-346, limits assumed, looked up): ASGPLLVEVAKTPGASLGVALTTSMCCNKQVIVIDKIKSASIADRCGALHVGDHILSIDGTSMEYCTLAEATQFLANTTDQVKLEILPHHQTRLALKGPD

A further experiment deals with T13, APBA2_2, Q99767.
T13 sequence (Q99767 654-744, limits assumed, looked up): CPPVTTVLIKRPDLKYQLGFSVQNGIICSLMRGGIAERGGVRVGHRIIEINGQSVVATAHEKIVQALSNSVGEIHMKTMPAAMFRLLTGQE

[1] abbreviates: plain residues with an end cap or a label only (N-terminal biotin on a linker: ado-ado).
The mark [2] stands for this setting: plain residues with an end cap or a label only (N-terminal biotin on a linker: ahx).
The mark [3] stands for this setting: plain residues with an end cap or a label only (N-terminal biotin on a linker: ttds).

Chain of GRID2IP_1, A4D2P6 (A4D2P6 1-87): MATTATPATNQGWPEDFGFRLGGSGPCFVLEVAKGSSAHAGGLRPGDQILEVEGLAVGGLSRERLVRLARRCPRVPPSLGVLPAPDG
Chain of FRMPD3, Q5JV73 (Q5JV73 12-100): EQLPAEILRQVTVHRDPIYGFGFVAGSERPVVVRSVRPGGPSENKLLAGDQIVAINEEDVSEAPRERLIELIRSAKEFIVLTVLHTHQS
Chain of GRIP2_7, Q9C0E4 (Q9C0E4 934-1023): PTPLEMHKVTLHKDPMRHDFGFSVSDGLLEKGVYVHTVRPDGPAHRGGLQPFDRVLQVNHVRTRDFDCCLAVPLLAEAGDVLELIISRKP
Chain of IL16_1, Q14005 (Q14005 210-306): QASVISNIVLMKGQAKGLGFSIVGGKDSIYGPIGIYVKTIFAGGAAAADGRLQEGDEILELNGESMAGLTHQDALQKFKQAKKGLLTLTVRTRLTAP
Chain of PARD3_3, Q8TEW0 (Q8TEW0 582-685): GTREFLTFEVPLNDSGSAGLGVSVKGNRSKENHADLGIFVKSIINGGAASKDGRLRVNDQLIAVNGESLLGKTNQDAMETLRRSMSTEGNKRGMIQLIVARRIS
Chain of GRIP2_4, Q9C0E4 (Q9C0E4 446-548): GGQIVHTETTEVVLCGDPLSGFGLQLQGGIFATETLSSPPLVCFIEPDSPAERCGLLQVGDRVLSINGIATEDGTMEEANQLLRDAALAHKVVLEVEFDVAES
Chain of HTRA1, Q92743 (Q92743 360-477): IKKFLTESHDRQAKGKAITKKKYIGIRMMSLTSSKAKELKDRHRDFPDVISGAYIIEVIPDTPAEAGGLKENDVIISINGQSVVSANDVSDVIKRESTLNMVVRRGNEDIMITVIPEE
Chain of LNX1_2, Q8TBB1 (Q8TBB1 371-470): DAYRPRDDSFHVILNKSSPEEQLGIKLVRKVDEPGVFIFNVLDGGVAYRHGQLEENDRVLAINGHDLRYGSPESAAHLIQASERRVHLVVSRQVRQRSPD
Chain of PTPN3, P26045 (P26045 505-587): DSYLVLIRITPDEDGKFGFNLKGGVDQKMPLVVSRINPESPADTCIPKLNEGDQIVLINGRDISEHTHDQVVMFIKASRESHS
Chain of LNX1_1, Q8TBB1 (Q8TBB1 261-371): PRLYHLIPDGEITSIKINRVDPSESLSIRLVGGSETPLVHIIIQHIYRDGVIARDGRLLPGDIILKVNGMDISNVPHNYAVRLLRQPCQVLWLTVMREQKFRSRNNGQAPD

For the molecule DAAHHDESNC [FMNL3, Q8IVF7], the pKd result was “below the threshold” with LNX2_3, Q8N448 (setting [1]); “below the threshold” in the experiment with PTPN13_1, Q12923 (setting [1]); “below the threshold” with APBA3_1, O96018 (setting [1]); “below the threshold” with LNX2_2, Q8N448 (setting [1]); “below the threshold” in the experiment with GRIP2_4, Q9C0E4 (setting [1]); “below the threshold” with ARHGAP21, Q5T5U3 (setting [1]). The pKd result in the experiment with TJP3_3, O95049 (setting [1]) was “below the threshold”; in the experiment with GRID2IP_1, A4D2P6 (setting [1]) it was “below the threshold”; in the experiment with FRMPD3, Q5JV73 (setting [1]), “below the threshold”; with DLG1_1, Q12959 (setting [1]), “below the threshold”; in the experiment with SNTG1, Q9NSN8 (setting [1]), “below the threshold”; in the experiment with MPDZ_12, O75970 (setting [1]), “below the threshold”. The pKd result was “below the threshold” with LIN7C, Q9NUP9 (setting [1]); 3.5 with SYNJ2BP, P57105 (setting [1]); “below the threshold” with PARD3_3, Q8TEW0 (setting [1]); “below the threshold” with PCLO, Q9Y6V0 (setting [1]); 3.76 with HTRA1, Q92743 (setting [1]); “below the threshold” in the experiment with LNX1_1, Q8TBB1 (setting [1]). For the same molecule, the pKd result is given as “below the threshold” in the experiment with PTPN3, P26045 (setting [1]); “below the threshold” in the experiment with GRIP2_7, Q9C0E4 (setting [1]); “below the threshold” with GRIP1_3, Q9Y3R0 (setting [1]); “below the threshold” in the experiment with LNX1_2, Q8TBB1 (setting [1]); “below the threshold” with IL16_1, Q14005 (setting [1]); “below the threshold” with APBA2_2, Q99767 (setting [1]).
For the molecule VNENQKEYFF [CNTNAP4, Q9C0A0], the pKd result with LNX2_3, Q8N448 (setting [2]) was “below the threshold”; in the experiment with PTPN13_1, Q12923 (setting [2]) it was “below the threshold”; in the experiment with APBA3_1, O96018 (setting [2]), “below the threshold”; with LNX2_2, Q8N448 (setting [2]), “below the threshold”; in the experiment with GRIP2_4, Q9C0E4 (setting [2]), “below the threshold”; with ARHGAP21, Q5T5U3 (setting [2]), 3.91. Also, the pKd entry with TJP3_3, O95049 (setting [2]) was “below the threshold”; in the experiment with GRID2IP_1, A4D2P6 (setting [2]), “below the threshold”; with FRMPD3, Q5JV73 (setting [2]), 4.66; with DLG1_1, Q12959 (setting [2]) it was “below the threshold”; in the experiment with SNTG1, Q9NSN8 (setting [2]), “below the threshold”; in the experiment with MPDZ_12, O75970 (setting [2]), “below the threshold”. Further, the pKd result with LIN7C, Q9NUP9 (setting [2]) is “below the threshold”; in the experiment with SYNJ2BP, P57105 (setting [2]), “below the threshold”; in the experiment with PARD3_3, Q8TEW0 (setting [2]), 5.32; in the experiment with PCLO, Q9Y6V0 (setting [2]) it was “below the threshold”; with HTRA1, Q92743 (setting [2]), 4.72; with LNX1_1, Q8TBB1 (setting [2]), “below the threshold”. Moreover, the pKd was 4.55 with PTPN3, P26045 (setting [2]); 5.77 in the experiment with GRIP2_7, Q9C0E4 (setting [2]); “below the threshold” in the experiment with GRIP1_3, Q9Y3R0 (setting [2]); “below the threshold” with LNX1_2, Q8TBB1 (setting [2]); “below the threshold” with IL16_1, Q14005 (setting [2]); “below the threshold” in the experiment with APBA2_2, Q99767 (setting [2]).
Turning to PSRDRKETSI [RALBP1, Q15311], the pKd result in the experiment with LNX2_3, Q8N448 (setting [3]) was “below the threshold”; with PTPN13_1, Q12923 (setting [3]), “below the threshold”; with APBA3_1, O96018 (setting [3]), “below the threshold”; with LNX2_2, Q8N448 (setting [3]), “below the threshold”; in the experiment with GRIP2_4, Q9C0E4 (setting [3]), “below the threshold”; with ARHGAP21, Q5T5U3 (setting [3]), “below the threshold”. Besides, the pKd entry in the experiment with TJP3_3, O95049 (setting [3]) was “below the threshold”; with GRID2IP_1, A4D2P6 (setting [3]), “below the threshold”; with FRMPD3, Q5JV73 (setting [3]) it was “below the threshold”; with DLG1_1, Q12959 (setting [3]), 3.79; with SNTG1, Q9NSN8 (setting [3]), 3.76; with MPDZ_12, O75970 (setting [3]), “below the threshold”. Moreover, the pKd was 3.9 in the experiment with LIN7C, Q9NUP9 (setting [3]); 4.7 with SYNJ2BP, P57105 (setting [3]); “below the threshold” in the experiment with PARD3_3, Q8TEW0 (setting [3]); “below the threshold” in the experiment with PCLO, Q9Y6V0 (setting [3]); “below the threshold” in the experiment with HTRA1, Q92743 (setting [3]); “below the threshold” with LNX1_1, Q8TBB1 (setting [3]). For the same molecule, the pKd with PTPN3, P26045 (setting [3]) was 4.75; with GRIP2_7, Q9C0E4 (setting [3]), “below the threshold”; with GRIP1_3, Q9Y3R0 (setting [3]) it was “below the threshold”; with LNX1_2, Q8TBB1 (setting [3]) it was “below the threshold”; with IL16_1, Q14005 (setting [3]), “below the threshold”; with APBA2_2, Q99767 (setting [3]), “below the threshold”.
As for EKPIDSETKM [SLC1A3, P43003], the pKd entry was “below the threshold” with LNX2_3, Q8N448 (setting [1]); “below the threshold” with PTPN13_1, Q12923 (setting [1]); “below the threshold” with APBA3_1, O96018 (setting [1]); “below the threshold” in the experiment with LNX2_2, Q8N448 (setting [1]); “below the threshold” with GRIP2_4, Q9C0E4 (setting [1]); “below the threshold” in the experiment with ARHGAP21, Q5T5U3 (setting [1]). Besides, the pKd entry with TJP3_3, O95049 (setting [1]) was “below the threshold”; in the experiment with GRID2IP_1, A4D2P6 (setting [1]), “below the threshold”; with FRMPD3, Q5JV73 (setting [1]), “below the threshold”; with DLG1_1, Q12959 (setting [1]), “below the threshold”; with SNTG1, Q9NSN8 (setting [1]) it was “below the threshold”; with MPDZ_12, O75970 (setting [1]), “below the threshold”. The pKd entry with LIN7C, Q9NUP9 (setting [1]) is “below the threshold”; with SYNJ2BP, P57105 (setting [1]), “below the threshold”; in the experiment with PARD3_3, Q8TEW0 (setting [1]) it was “below the threshold”; with PCLO, Q9Y6V0 (setting [1]), “below the threshold”; in the experiment with HTRA1, Q92743 (setting [1]), “below the threshold”; in the experiment with LNX1_1, Q8TBB1 (setting [1]) it was “below the threshold”. In addition, the negative logarithm of the Kd (pKd) with PTPN3, P26045 (setting [1]) was 4.25; with GRIP2_7, Q9C0E4 (setting [1]), “below the threshold”; with GRIP1_3, Q9Y3R0 (setting [1]), “below the threshold”; with LNX1_2, Q8TBB1 (setting [1]), “below the threshold”; with IL16_1, Q14005 (setting [1]), “below the threshold”; with APBA2_2, Q99767 (setting [1]), “below the threshold”.
